Measurements as given in patent US20260069689A1 (Regeneron, published 2026).
Numbering of substitutions follows the chain as printed.

B1: mAb15163 (antibody, V domains shown)
VH: EVQLVETGGGLIQPGESLRLSCAASGFIVSTNYMNWVRQAPGKGLEWVSVIYRGGSTYYADSVKGRFTISRDNSKNTLFLQMNSLRAEDTAVYYCARGHEDFDYDTPASGAFDIWGQGTMVTVSS
VL: QSALTQPPSASGSPGQSVTISCTGTSSDVGGHNYVSWYQQHPGKAPKVMIYEVSKRPSGVPDRFSGSKSGNTASLTVSGLQAEDEADYYCSSYAGSNKFVFGTGTKVTVLG
B2: mAb15164 (antibody, V domains shown)
VH: EVQLVESGGGLVQPGGSLRLSCAASGFAVSSNYMTWVRQAPGKGLEWVATIYSGDSTYYADSVKGRFTISRHNSKNTLSLQMNSLRADDTAIYYCARLSGVLSGTYNGAFDIWGQGTMVTVSS
VL: QSALTQPASVSGSPGQSITISCTGTSSDFGNYNIVSWYQQHPGQAPKVMIYEGNKRPSGVSNRFSGSKSGHTASLTISGLQAEDEADYYCSSYAGSSTWVFGGGTKLTVLG
B3: mAb15166 (antibody, V domains shown)
VH: EVQLVESGGGLVQPGGSLRLSCAASGFTVTSNYMSWVRQAPGKGLEWVSAIYSGESTYYADSVKGRFTISRDSSKNTLYLQMNSLRVEDTAVYYCASIHDYSNYVGGFDPWGQGTLVTVSS
VL: B2 VL with T25P, N31S, I34L, Q44K, V48L, N54T, H71N
B4: mAb15165 (antibody, V domains shown)
VH: EVQLVESGGGLVQPGGSLRLSCAASGFTVSSNYMSWVRQAPGKGLEWVSAIYSGDSTYYADSVKGRFTISKDNSKNTLYLQMNSLRGEDTAVYYCARLGGALQAYDGAFDYWGQGTLATVSS
VL: B2 VL with N31S, I34L, Q44K, V48L, N62I, H71N
B5: mAb15151 (antibody, V domains shown)
VH: QVQLVESGGGVVQPGRSLRLSCAASGFVFNSYGMHWVRQAPGKGLEWVAVLWYEGSKNYYADSVKGRFTISRDNSKNTLYLQMNSLRAEDTAVYYCARHGSGSFFGYYLDYWGQGTLVTVSS
VL: DIQMTQSPSSLSASVGDRVTITCRASHNINDFLNWYQQKPGKAPRLLIYAASSLQSGVPSRFSGSGSGTDFTLTISSLQPEDFATYYCQESYTTPPTFGQGTKLEIKR
B6: mAb15170 (antibody, V domains shown)
VH: EVQLVESGGGLVQPGGSLRLSCAATGITVSSNYMSWVRQAPGKGLEWVSLIYSGGSTFYADSVKGRFTISRHNSKNTLYLQMSSLRAEDTAVYYCARDLVDFGMDVWGQGTTVTVSS
VL: DIQLTQSPSSLSASVGDRVTITCRASQGISNYLAWYQQKPGKAPKLLIYAASTLQSGVPSRFSGSGSGTDFTLTISSLQPEDFGTYYCQQLNSDSPTFGQGTKVEIKR

Legend:
[1] = molecular target: T1, SARS-COV-2 RBD extracellular domain expressed with a C-terminal mouse IgG2a Fc (SARS-CoV-2); test: Biacore SPR, mAb captured on anti-hFc, 25 C
[2] = molecular target: T1, SARS-COV-2 RBD extracellular domain …; test: Biacore SPR, mAb captured on anti-hFc, 37 C

Row | Binder | Kd [1] | koff [1] | kon [1] | t½ [1] | Kd [2] | koff [2] | kon [2] | t½ [2]
1 | B1 | ≤ 0.0108 nM | ≤ 1e-05 s⁻¹ | 930000 M⁻¹ s⁻¹ | 19.2 h | 0.0601 nM | 2.5e-05 s⁻¹ | 416000 M⁻¹ s⁻¹ | 7.7 h
2 | B2 | 0.0569 nM | 2.12e-05 s⁻¹ | 372000 M⁻¹ s⁻¹ | 9.09 h | 0.0518 nM | 9.4e-05 s⁻¹ | 1.82e+06 M⁻¹ s⁻¹ | 2.05 h
3 | B3 | 0.016 nM | 1.62e-05 s⁻¹ | 1.02e+06 M⁻¹ s⁻¹ | 11.9 h | 0.126 nM | 9.8e-05 s⁻¹ | 781000 M⁻¹ s⁻¹ | 1.97 h
4 | B4 | 0.129 nM | – | 301000 M⁻¹ s⁻¹ | 4.96 h | 0.45 nM | 4.55e-05 s⁻¹ | 100000 M⁻¹ s⁻¹ | 4.23 h
5 | B5 | 0.00338 nM | 3.12e-05 s⁻¹ | 9.24e+06 M⁻¹ s⁻¹ | 6.16 h | 0.85 nM | 0.0031 s⁻¹ | 3.7e+06 M⁻¹ s⁻¹ | 0.0617 h
6 | B6 | ≤ 0.0295 nM | ≤ 1e-05 s⁻¹ | 339000 M⁻¹ s⁻¹ | 19.2 h | 0.091 nM | 2.41e-05 s⁻¹ | 260000 M⁻¹ s⁻¹ | 8 h
